Measurements as given in IntAct's records for PubMed 15294869.

Molecular target: pir_arath PIR (UniProt Q5S2C3)
Sequence (Q5S2C3 whole entry): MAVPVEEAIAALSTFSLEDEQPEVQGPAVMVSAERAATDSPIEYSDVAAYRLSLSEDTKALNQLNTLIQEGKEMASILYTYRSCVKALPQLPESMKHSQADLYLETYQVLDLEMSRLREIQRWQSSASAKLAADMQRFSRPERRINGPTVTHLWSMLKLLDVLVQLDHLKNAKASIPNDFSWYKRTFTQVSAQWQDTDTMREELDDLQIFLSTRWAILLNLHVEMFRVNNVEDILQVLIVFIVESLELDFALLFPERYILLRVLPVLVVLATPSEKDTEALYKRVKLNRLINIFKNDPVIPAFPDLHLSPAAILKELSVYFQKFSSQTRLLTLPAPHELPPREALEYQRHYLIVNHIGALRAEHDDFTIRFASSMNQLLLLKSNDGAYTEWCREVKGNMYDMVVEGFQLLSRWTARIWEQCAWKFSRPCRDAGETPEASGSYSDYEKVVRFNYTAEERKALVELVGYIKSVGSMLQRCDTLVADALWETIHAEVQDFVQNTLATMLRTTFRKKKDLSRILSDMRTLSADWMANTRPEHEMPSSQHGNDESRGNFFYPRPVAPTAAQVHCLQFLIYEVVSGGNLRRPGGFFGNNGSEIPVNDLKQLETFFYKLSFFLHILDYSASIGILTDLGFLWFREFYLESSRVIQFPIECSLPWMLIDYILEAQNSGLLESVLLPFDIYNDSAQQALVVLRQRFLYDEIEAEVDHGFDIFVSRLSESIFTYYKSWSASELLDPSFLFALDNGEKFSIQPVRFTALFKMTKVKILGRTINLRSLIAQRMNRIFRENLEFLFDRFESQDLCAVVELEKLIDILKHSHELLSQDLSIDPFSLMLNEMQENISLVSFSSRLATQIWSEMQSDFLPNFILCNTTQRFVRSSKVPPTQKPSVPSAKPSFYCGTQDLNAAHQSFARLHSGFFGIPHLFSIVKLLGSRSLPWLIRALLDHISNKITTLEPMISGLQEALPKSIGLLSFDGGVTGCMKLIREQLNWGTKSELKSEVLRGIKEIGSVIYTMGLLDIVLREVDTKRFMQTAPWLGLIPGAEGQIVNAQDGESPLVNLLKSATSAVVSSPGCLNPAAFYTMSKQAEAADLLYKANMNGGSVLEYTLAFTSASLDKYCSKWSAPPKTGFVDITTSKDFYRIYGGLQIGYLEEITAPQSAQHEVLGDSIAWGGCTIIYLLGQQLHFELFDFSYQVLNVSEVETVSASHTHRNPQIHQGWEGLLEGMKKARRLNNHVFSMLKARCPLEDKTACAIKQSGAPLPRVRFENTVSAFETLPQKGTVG

Chain of Rac-like GTP-binding protein ARAC4 (Arabidopsis thaliana (Mouse-ear cress)), Q38919 D120A (Q38919 whole entry D120A): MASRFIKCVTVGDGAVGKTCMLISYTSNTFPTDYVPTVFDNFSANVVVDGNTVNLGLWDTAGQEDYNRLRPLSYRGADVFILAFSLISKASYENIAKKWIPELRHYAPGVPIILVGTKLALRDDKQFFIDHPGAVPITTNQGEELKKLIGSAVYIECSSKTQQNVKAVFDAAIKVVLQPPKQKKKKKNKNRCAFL
Chain of Rac-like GTP-binding protein ARAC4 (Arabidopsis thaliana (Mouse-ear cress)), Q38919 T19N (Q38919 whole entry T19N): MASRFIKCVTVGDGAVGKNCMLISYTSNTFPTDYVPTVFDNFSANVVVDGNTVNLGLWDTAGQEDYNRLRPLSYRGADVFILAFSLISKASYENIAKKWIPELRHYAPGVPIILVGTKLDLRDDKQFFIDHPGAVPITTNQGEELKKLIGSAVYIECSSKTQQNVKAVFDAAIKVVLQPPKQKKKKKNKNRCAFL

Row | effect of a mutation on the interaction | Substance
1 | disrupting interaction | Rac-like GTP-binding protein ARAC4 (Arabidopsis thaliana (Mouse-ear cress)), Q38919 D120A
2 | disrupting interaction | Rac-like GTP-binding protein ARAC4 (Arabidopsis thaliana (Mouse-ear cress)), Q38919 T19N
